Data from the Human Domainome abundance scans (Beltran et al. 2025).
± gives the uncertainty stated by the source.

Assay: abundance fitness (aPCA) (normalised: wild type 0, dead -1); higher = more abundant; growth selection in yeast, the domain comes from the species named
Conditions: Homo sapiens

Scaffold attachment factor B2 E66F, Q14151
abundance fitness: -0.417 ± 0.13

Scaffold attachment factor B2 E66G, Q14151
abundance fitness: -0.108 ± 0.083

Scaffold attachment factor B2 E66H, Q14151
abundance fitness: -0.214 ± 0.11

Scaffold attachment factor B2 E66I, Q14151
abundance fitness: -0.207 ± 0.15

Scaffold attachment factor B2 E66K, Q14151
abundance fitness: -0.5 ± 0.26

Scaffold attachment factor B2 E66L, Q14151
abundance fitness: -0.247 ± 0.1

Scaffold attachment factor B2 E66M, Q14151
abundance fitness: -0.329 ± 0.12

Scaffold attachment factor B2 E66N, Q14151
abundance fitness: -0.322 ± 0.26

Scaffold attachment factor B2 E66P, Q14151
abundance fitness: -0.485 ± 0.16

Scaffold attachment factor B2 E66R, Q14151
abundance fitness: -0.131 ± 0.071

Scaffold attachment factor B2 E66T, Q14151
abundance fitness: -0.301 ± 0.21

Scaffold attachment factor B2 E66V, Q14151
abundance fitness: -0.232 ± 0.1

Scaffold attachment factor B2 E66W, Q14151
abundance fitness: -0.365 ± 0.12

Scaffold attachment factor B2 E67A, Q14151
abundance fitness: -0.23 ± 0.12

Scaffold attachment factor B2 E67C, Q14151
abundance fitness: -0.433 ± 0.12

Scaffold attachment factor B2 E67H, Q14151
abundance fitness: -0.218 ± 0.4

Scaffold attachment factor B2 E67L, Q14151
abundance fitness: -0.495 ± 0.094

Scaffold attachment factor B2 E67M, Q14151
abundance fitness: -0.525 ± 0.11

Scaffold attachment factor B2 E67P, Q14151
abundance fitness: -0.377 ± 0.12

Scaffold attachment factor B2 E67Q, Q14151
abundance fitness: -0.246 ± 0.1

Scaffold attachment factor B2 E67R, Q14151
abundance fitness: -0.445 ± 0.1

Scaffold attachment factor B2 E67S, Q14151
abundance fitness: -0.226 ± 0.095

Scaffold attachment factor B2 E67T, Q14151
abundance fitness: -0.381 ± 0.1

Scaffold attachment factor B2 E67V, Q14151
abundance fitness: -0.333 ± 0.1

Scaffold attachment factor B2 E67W, Q14151
abundance fitness: -0.85 ± 0.11

Scaffold attachment factor B2 E67Y, Q14151
abundance fitness: -0.889 ± 0.34

Scaffold attachment factor B2 G50A, Q14151
abundance fitness: -0.099 ± 0.089

Scaffold attachment factor B2 G50C, Q14151
abundance fitness: -0.082 ± 0.12

Scaffold attachment factor B2 G50D, Q14151
abundance fitness: -0.171 ± 0.12

Scaffold attachment factor B2 G50E, Q14151
abundance fitness: -0.119 ± 0.084

Scaffold attachment factor B2 G50F, Q14151
abundance fitness: -0.51 ± 0.17

Scaffold attachment factor B2 G50H, Q14151
abundance fitness: -0.108 ± 0.093

Scaffold attachment factor B2 G50L, Q14151
abundance fitness: -0.194 ± 0.08

Scaffold attachment factor B2 G50M, Q14151
abundance fitness: -0.114 ± 0.11

Scaffold attachment factor B2 G50N, Q14151
abundance fitness: -0.065 ± 0.1

Scaffold attachment factor B2 G50P, Q14151
abundance fitness: -1.01 ± 0.16

Scaffold attachment factor B2 G50Q, Q14151
abundance fitness: -0.329 ± 0.12

Scaffold attachment factor B2 G50R, Q14151
abundance fitness: 0.05 ± 0.079

Scaffold attachment factor B2 G50S, Q14151
abundance fitness: -0.077 ± 0.11

Scaffold attachment factor B2 G50T, Q14151
abundance fitness: -0.096 ± 0.17

Scaffold attachment factor B2 G50V, Q14151
abundance fitness: -0.015 ± 0.08

Scaffold attachment factor B2 G50W, Q14151
abundance fitness: -0.26 ± 0.089

Scaffold attachment factor B2 G51C, Q14151
abundance fitness: -0.517 ± 0.13

Scaffold attachment factor B2 G51D, Q14151
abundance fitness: -0.7 ± 0.14

Scaffold attachment factor B2 G51E, Q14151
abundance fitness: -0.426 ± 0.094

Scaffold attachment factor B2 G51F, Q14151
abundance fitness: -0.882 ± 0.19

Scaffold attachment factor B2 G51I, Q14151
abundance fitness: -1.25 ± 0.4

Scaffold attachment factor B2 G51K, Q14151
abundance fitness: -0.786 ± 0.15

Scaffold attachment factor B2 G51L, Q14151
abundance fitness: -0.908 ± 0.087

Scaffold attachment factor B2 G51M, Q14151
abundance fitness: -0.853 ± 0.12

Scaffold attachment factor B2 G51N, Q14151
abundance fitness: -0.833 ± 0.25

Scaffold attachment factor B2 G51P, Q14151
abundance fitness: -0.998 ± 0.26

Scaffold attachment factor B2 G51Q, Q14151
abundance fitness: -0.704 ± 0.096

Scaffold attachment factor B2 G51R, Q14151
abundance fitness: -0.794 ± 0.072

Scaffold attachment factor B2 G51S, Q14151
abundance fitness: -0.597 ± 0.085

Scaffold attachment factor B2 G51T, Q14151
abundance fitness: -0.633 ± 0.1

Scaffold attachment factor B2 G51V, Q14151
abundance fitness: -0.729 ± 0.084

Scaffold attachment factor B2 G51W, Q14151
abundance fitness: -1.41 ± 0.1

Scaffold attachment factor B2 G68A, Q14151
abundance fitness: 0.004 ± 0.094

Scaffold attachment factor B2 G68E, Q14151
abundance fitness: 0.166 ± 0.095

Scaffold attachment factor B2 G68F, Q14151
abundance fitness: -0.509 ± 0.17

Scaffold attachment factor B2 G68I, Q14151
abundance fitness: -0.551 ± 0.099

Scaffold attachment factor B2 G68K, Q14151
abundance fitness: 0.232 ± 0.25

Scaffold attachment factor B2 G68L, Q14151
abundance fitness: -0.365 ± 0.098

Scaffold attachment factor B2 G68M, Q14151
abundance fitness: -0.33 ± 0.12

Scaffold attachment factor B2 G68P, Q14151
abundance fitness: -0.19 ± 0.13

Scaffold attachment factor B2 G68Q, Q14151
abundance fitness: -0.078 ± 0.1

Scaffold attachment factor B2 G68S, Q14151
abundance fitness: -0.178 ± 0.12

Scaffold attachment factor B2 G68T, Q14151
abundance fitness: -0.026 ± 0.12

Scaffold attachment factor B2 G68V, Q14151
abundance fitness: -0.169 ± 0.092

Scaffold attachment factor B2 I36A, Q14151
abundance fitness: 0.153 ± 0.082

Scaffold attachment factor B2 I36C, Q14151
abundance fitness: 0.086 ± 0.099

Scaffold attachment factor B2 I36D, Q14151
abundance fitness: 0.206 ± 0.18

Scaffold attachment factor B2 I36E, Q14151
abundance fitness: 0.157 ± 0.13

Scaffold attachment factor B2 I36F, Q14151
abundance fitness: -0.507 ± 0.17

Scaffold attachment factor B2 I36G, Q14151
abundance fitness: 0.066 ± 0.068

Scaffold attachment factor B2 I36H, Q14151
abundance fitness: -0.208 ± 0.2

Scaffold attachment factor B2 I36K, Q14151
abundance fitness: 0.04 ± 0.089

Scaffold attachment factor B2 I36L, Q14151
abundance fitness: -0.103 ± 0.087

Scaffold attachment factor B2 I36M, Q14151
abundance fitness: 0.043 ± 0.17

Scaffold attachment factor B2 I36N, Q14151
abundance fitness: -0.073 ± 0.13

Scaffold attachment factor B2 I36P, Q14151
abundance fitness: 0.067 ± 0.096

Scaffold attachment factor B2 I36Q, Q14151
abundance fitness: 0.08 ± 0.12

Scaffold attachment factor B2 I36R, Q14151
abundance fitness: 0.079 ± 0.071

Scaffold attachment factor B2 I36S, Q14151
abundance fitness: 0.127 ± 0.081

Scaffold attachment factor B2 I36T, Q14151
abundance fitness: 0.173 ± 0.12

Scaffold attachment factor B2 I36V, Q14151
abundance fitness: -0.002 ± 0.091

Scaffold attachment factor B2 K43A, Q14151
abundance fitness: 0.022 ± 0.097

Scaffold attachment factor B2 K43C, Q14151
abundance fitness: -0.271 ± 0.12

Scaffold attachment factor B2 K43D, Q14151
abundance fitness: -0.147 ± 0.11

Scaffold attachment factor B2 K43E, Q14151
abundance fitness: -0.071 ± 0.084

Scaffold attachment factor B2 K43F, Q14151
abundance fitness: -0.601 ± 0.15

Scaffold attachment factor B2 K43G, Q14151
abundance fitness: -0.172 ± 0.074

Scaffold attachment factor B2 K43I, Q14151
abundance fitness: -0.599 ± 0.17

Scaffold attachment factor B2 K43L, Q14151
abundance fitness: -0.191 ± 0.089

Scaffold attachment factor B2 K43N, Q14151
abundance fitness: -0.367 ± 0.2

Scaffold attachment factor B2 K43P, Q14151
abundance fitness: -0.486 ± 0.12

Scaffold attachment factor B2 K43Q, Q14151
abundance fitness: -0.124 ± 0.096

Scaffold attachment factor B2 K43R, Q14151
abundance fitness: -0.104 ± 0.076

Scaffold attachment factor B2 K43S, Q14151
abundance fitness: -0.057 ± 0.091

Scaffold attachment factor B2 K43T, Q14151
abundance fitness: -0.217 ± 0.1

Scaffold attachment factor B2 K43V, Q14151
abundance fitness: -0.149 ± 0.1

Scaffold attachment factor B2 K43W, Q14151
abundance fitness: -0.359 ± 0.094

Scaffold attachment factor B2 K43Y, Q14151
abundance fitness: -0.961 ± 0.25

Scaffold attachment factor B2 K44A, Q14151
abundance fitness: -0.067 ± 0.08

Scaffold attachment factor B2 K44C, Q14151
abundance fitness: -0.48 ± 0.12

Scaffold attachment factor B2 K44D, Q14151
abundance fitness: -0.549 ± 0.19

Scaffold attachment factor B2 K44E, Q14151
abundance fitness: -0.219 ± 0.091

Scaffold attachment factor B2 K44F, Q14151
abundance fitness: -0.61 ± 0.12

Scaffold attachment factor B2 K44G, Q14151
abundance fitness: -0.225 ± 0.072
